{"source": "the nanobody polyreactivity screen of Harvey et al. (2022)", "data": [{"test": "yeast display, Sf9 membrane polyspecificity reagent, FACS + sequencing; frameworks hold sequencing errors", "outline": "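Genes from sorted yeast were amplified by colony PCR, read by MiSeq 2 × 250 sequencing and filtered on CDR length. These cells carried a synthetic nanobody library in Saccharomyces cerevisiae BJ5465 and were sorted by FACS into low and high (top ~1%) gates on anti-HA and streptavidin fluorescence. Polyreactivity is labelled according to the gate of origin.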", "values": [{"sequence": "QVQLVESGGGLVQAGGSLRLSCAASGFTFDTYAMGWSRQAPGKERELVAAISSSGGSTYYADSVKGRFTISRDNAKNTVYLQMNSLKPEDTAVYYCNAYYRYSRGYDYWGQGTQVTVSS", "polyreactivity (PSR sort gate)": "high polyreactivity"}, {"sequence": "QVQLVESGGGLVQAGGSLRLSCAASGFTFDTYAMGWYRQAPGKERELVAAISWGGGSTFYADSVKGRFTISRDNAKNTVYLQMNSLKPEDTAVYYCAAEIPGYYVFNYGYWYYEYDYWGQGTQVTVSS", "polyreactivity (PSR sort gate)": "high polyreactivity"}, {"sequence": "QVQLVESGGGLVQAGGSLRLSCAASGFTFDTYTMGWYRQAPGKERELVAAISSGGNTNYADSVKGRFTISRDNAKNTVYLQMNSLKPEDTAVYYCARGATLLQYSYWGVYEYDSWGQGTQVTVSS", "polyreactivity (PSR sort gate)": "low polyreactivity"}, {"sequence": "QVQLVESGGGLVQAGGSLRLSCAASGFTFDYNAMGWYRQAPGKEREFVAAISSNGGSTYYADSVKGRFTISRDNAKNTVYFQMNSLKPEDTAVYYCAARYRSFVYWYGYWGQGTQVTVSS", "polyreactivity (PSR sort gate)": "high polyreactivity"}, {"sequence": "QVQLVESGGGLVQAGGSLRLSCAASGFTFDYNGLGWYRQAPGKERELVAGIRWSGGSTYYADSVKGRFTISRDNAKNTVYLQMNSLKPEDTAVYYCATSQYGYRSWPGLYYWGQGTQVTVSS", "polyreactivity (PSR sort gate)": "low polyreactivity"}, {"sequence": "QVQLVESGGGLVQAGGSLRLSCAASGFTFDYYTMGWYRQAPGKEREFVAAITWNGGTTNYADSVKGRFTISRDNAKYTVYLQMNSLKPEDTAVYYCAATAYWYFSNDSGRSYDYWGQGTQVTVSS", "polyreactivity (PSR sort gate)": "low polyreactivity"}, {"sequence": "QVQLVESGGGLVQAGGSLRLSCAASGFTFEGNAMGWYRQAPGKEREFVAAITSNGGGTYYADSVKGRFTISRDNAKNTVYLQMNSLKPEDTAVYDCAATYWTWYSWYDYWGQGTQVTVSS", "polyreactivity (PSR sort gate)": "high polyreactivity"}, {"sequence": "QVQLVESGGGLVQAGGSLRLSCAASGFTFEIYAMGWYRQAPGKERELVAAITWSGGSTDYADSVKGRFTISRDNAKNSVYFQMNSLKPEDTAVYYCAAVTVQYVGYGYWGQGTQVTVSS", "polyreactivity (PSR sort gate)": "low polyreactivity"}, {"sequence": "QVQLVESGGGLVQAGGSLRLSCAASGFTFERYTMGWYIQAPGKERELVATISRRSGRTSYADSVKGRFTISRDNAKNTVYLQMNSLKPEDTEVYYCAVDYAYPDRYDYWGQGTQVTVSS", "polyreactivity (PSR sort gate)": "high polyreactivity"}, {"sequence": "QVQLVESGGGLVQAGGSLRLSCAASGFTFETNAMGWYRQEPGQERELVAAISYSGGSTYYADSVKGRFTISRDNAKNTVYLQMNSLKPEDNAVYYCNKYYRGIFKAHRDYWGQGTQVTVSS", "polyreactivity (PSR sort gate)": "low polyreactivity"}, {"sequence": "QVQLVESGGGLVQAGGSLRLSCAASGFTFEYYALGWYRPAPGKERELVAAITYSGGSTYYADSVKGRFTISRDNAKITVYLQLNSLKPEDTAVYYCATESPRYRLYQSAVYGYFYWGQGTQVTVSS", "polyreactivity (PSR sort gate)": "high polyreactivity"}, {"sequence": "QVQLVESGGGLVQAGGSLRLSCAASGFTFFDYVMGWYRQAPGKERELVAAISSSGGSTNYADSVKGRFTISRDNAKNTVYLQMNSLKPQDTAVYYCAAEDFWDDVEYWGQGTQVTVSS", "polyreactivity (PSR sort gate)": "low polyreactivity"}, {"sequence": "QVQLVESGGGLVQAGGSLRLSCAASGFTFFKYAMGGYRQAPGKERELVAAITRNGGRTYYADSVKGRFTISRDNAKNTVYLHMNSLKPEDTAVYYCNAASVNGGRDFDYWGQGTQVTVSS", "polyreactivity (PSR sort gate)": "high polyreactivity"}, {"sequence": "QVQLVESGGGLVQAGGSLRLSCAASGFTFFMYAMGGDRQAPGKEREFVASITGSGGSTYYADSVKGRFTISRDTAKNSVYLQMNSLKPEDTAVYYCNKLSYGRSGYWGQGTQVTVSS", "polyreactivity (PSR sort gate)": "high polyreactivity"}, {"sequence": "QVQLVESGGGLVQAGGSLRLSCAASGFTFFPNAMGWYRQAPGKERELVADITDGGSTNYADSVKGRFTISRDNAKNTVYLQLNSLKPEDTADYYCNADWYGWFGGYEYWGQGTQVTVSS", "polyreactivity (PSR sort gate)": "high polyreactivity"}, {"sequence": "QVQLVESGGGLVQAGGSLRLSCAASGFTFFQNHRGWYRQAPGTERELVADISYRGRRPYYADSVKGRFTISRDNAKNTVYLQMNCLKPVDTAVYYCARRSSKPSSIQYYYCGQGTQVTVSS", "polyreactivity (PSR sort gate)": "high polyreactivity"}, {"sequence": "QVQLVESGGGLVQAGGSLRLSCAASGFTFFRNAIGWYRQAPGKERELVAAISGSGGSTYYADSVKGRFTISRDNAKNTVYLQMNSLKPEDTAVYYCAARTSYYVYRHPSGRYDYWGQGTQVTVSS", "polyreactivity (PSR sort gate)": "low polyreactivity"}]}]}
